# In patent US20150203575A1 (Genentech, published 2015):
# T1: BR3 expressed on cells (human, UniProt Q96RJ3 1-184)
# T1 construct: Clone of the Origene human cDNA library
# T1 sequence: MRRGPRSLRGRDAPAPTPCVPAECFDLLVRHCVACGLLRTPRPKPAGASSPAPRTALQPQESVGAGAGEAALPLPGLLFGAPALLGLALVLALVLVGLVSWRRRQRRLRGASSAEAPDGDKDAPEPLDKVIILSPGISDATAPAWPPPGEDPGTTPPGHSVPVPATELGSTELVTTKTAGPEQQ
# T2: IL-2Ra expressed on cells (human, UniProt P01589 22-272)
# T2 construct: Clone of the Origene human cDNA library; also called Interleukin 2 receptor alpha
# T2 sequence: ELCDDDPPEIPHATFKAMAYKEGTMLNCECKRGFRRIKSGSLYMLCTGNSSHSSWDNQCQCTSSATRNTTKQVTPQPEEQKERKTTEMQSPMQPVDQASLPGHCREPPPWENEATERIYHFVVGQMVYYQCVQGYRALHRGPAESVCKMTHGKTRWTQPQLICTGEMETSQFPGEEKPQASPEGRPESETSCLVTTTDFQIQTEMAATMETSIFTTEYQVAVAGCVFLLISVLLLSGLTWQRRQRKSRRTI
# T3: human NPDC1 expressed on cells (human, UniProt Q9NQX5 35-325)
# T3 construct: also called hNPDC1; hNPCD1
# T3 sequence: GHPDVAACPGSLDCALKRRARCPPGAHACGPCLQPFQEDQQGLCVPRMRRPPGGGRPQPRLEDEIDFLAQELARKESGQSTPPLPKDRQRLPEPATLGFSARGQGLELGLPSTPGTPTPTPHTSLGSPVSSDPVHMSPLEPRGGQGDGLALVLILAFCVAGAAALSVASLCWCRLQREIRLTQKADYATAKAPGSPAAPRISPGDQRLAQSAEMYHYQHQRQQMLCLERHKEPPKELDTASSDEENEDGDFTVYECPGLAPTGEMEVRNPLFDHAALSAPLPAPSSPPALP
# T4: mouse CD99 expressed on 293T cells (mouse, UniProt Q8VCN6 29-175, sialylated O-glycans at Thr-45 and Thr-50 (cited as relevant for PILRα recognition))
# T4 construct: whole, on cells; also called mCD99; mCD99 transfectants
# T4 sequence (looked up): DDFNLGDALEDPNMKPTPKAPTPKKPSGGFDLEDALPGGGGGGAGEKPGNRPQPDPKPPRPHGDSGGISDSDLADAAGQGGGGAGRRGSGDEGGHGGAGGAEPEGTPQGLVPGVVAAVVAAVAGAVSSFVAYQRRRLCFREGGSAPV
# T5: MAG expressed on cells (human, UniProt P20916 20-626)
# T5 construct: Clone of the Origene human cDNA library; also called Myelin associated glycoprotein; SIGLEC4A
# T5 sequence: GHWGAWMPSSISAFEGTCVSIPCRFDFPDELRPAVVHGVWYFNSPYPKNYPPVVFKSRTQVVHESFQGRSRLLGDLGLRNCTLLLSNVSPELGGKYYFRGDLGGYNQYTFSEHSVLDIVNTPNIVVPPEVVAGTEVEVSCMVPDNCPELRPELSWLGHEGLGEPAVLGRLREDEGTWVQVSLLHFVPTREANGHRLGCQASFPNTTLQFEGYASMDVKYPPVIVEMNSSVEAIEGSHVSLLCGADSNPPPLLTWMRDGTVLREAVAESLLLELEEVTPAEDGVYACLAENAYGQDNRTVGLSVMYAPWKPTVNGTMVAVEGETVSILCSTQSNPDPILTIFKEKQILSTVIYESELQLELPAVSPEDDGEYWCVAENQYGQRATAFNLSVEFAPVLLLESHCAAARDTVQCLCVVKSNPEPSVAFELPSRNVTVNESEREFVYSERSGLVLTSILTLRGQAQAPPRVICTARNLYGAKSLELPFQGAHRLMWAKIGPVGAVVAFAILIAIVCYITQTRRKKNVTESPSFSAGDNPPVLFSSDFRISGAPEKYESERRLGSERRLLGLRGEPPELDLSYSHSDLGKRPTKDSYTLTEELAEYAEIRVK
# B1: hPILRα-Fc (Fc fusion)
# chain: QPSGSTGSGPSYLYGVTQPKHLSASMGGSVEIPFSFYYPWELATAPDVRISWRRGHFHRQSFYSTRPPSIHKDYVNRLFLNWTEGQKSGFLRISNLQKQDQSVYFCRVELDTRSSGRQQWQSIEGTKLSITQAVTTTTQRPSSMTTTWRLSSTTTTTGLRVTQGKRRSDSWHISLETA
# notes: also called human PILRα-Fc; WT hPILRα-Fc; not shown: Fc of mouse IgG2a (PILRα-mIgG2a, called PILRα-Fc)
# Columns and labels:
# [1] = target: T6, PSS8 expressed on cells (human, UniProt Q16651 30-343); assay: flow cytometry, transfected 293T cells, 50 µg/ml
# T6 construct: Clone of the Origene human cDNA library; also called Protease serine 8; prostasin
# [2] = target: T1, BR3 expressed on cells; assay: flow cytometry, transfected 293T cells, 50 µg/ml
# [3] = target: T2, IL-2Ra expressed on cells; assay: flow cytometry, transfected 293T cells, 50 µg/ml
# [4] = target: T7, hCOLEC12-his (human, UniProt Q5KU26 59-742, sialylated O-glycans and N-glycans); assay: SPR equilibrium binding analysis, hCOLEC12 immobilised
# T7 construct: Whole entry named; also called human COLEC12-his; hCOLEC12 (SPR); not shown: his tag
# [5] = target: T3, human NPDC1 expressed on cells; assay: equilibrium competition radioligand assay: 125I-hPILRα-Fc against unlabeled hPILRα-Fc on 293T cells transiently expressing hNPDC1; average of two replicate assays
# From the text: Binding to mock transfectants (grey area) represents background binding. Transfected ligand expressing cells were gated and their binding to PILRα-Fc was shown. […] Binding to mock transfectants (grey area) represents background binding. PILRα positive cells were gated and ligand fusion staining was shown.
# [6] = target: T3, human NPDC1 expressed on cells; assay: flow cytometry, transfected 293T cells, 50 µg/ml; 293T-Neo: 1.5
# [7] = target: T4, mouse CD99 expressed on 293T cells; assay: as above
# [8] = target: T8, human COLEC12 expressed on cells (human, UniProt Q5KU26 1-742); assay: as above
# T8 construct: also called hCOLEC12; C-terminal his tagged hCOLEC12
# [9] = target: T9, LRRTM4 expressed on cells (human, UniProt Q86VH4 31-590); assay: flow cytometry, transfected 293T cells, 50 µg/ml
# T9 construct: Clone of the Origene human cDNA library; also called Leucine rich repeat transmembrane neuronal 4
# [10] = target: T5, MAG expressed on cells; assay: flow cytometry, transfected 293T cells, 50 µg/ml
# [11] = target: T3, human NPDC1 expressed on cells; assay: flow cytometry, transfected 293T cells, 2 µg/ml; 293T-Neo: 0.013
# [12] = target: T4, mouse CD99 expressed on 293T cells; assay: as above
# [13] = target: T8, human COLEC12 expressed on cells; assay: as above
# [14] = target: T9, LRRTM4 expressed on cells; assay: flow cytometry, transfected 293T cells, 2 µg/ml
# [15] = target: T5, MAG expressed on cells; assay: flow cytometry, transfected 293T cells, 2 µg/ml
# [16] = target: T6, PSS8 expressed on cells; assay: flow cytometry, transfected 293T cells, 2 µg/ml
# [17] = target: T1, BR3 expressed on cells; assay: flow cytometry, transfected 293T cells, 2 µg/ml
# [18] = target: T2, IL-2Ra expressed on cells; assay: flow cytometry, transfected 293T cells, 2 µg/ml
# T8 sequence (Q5KU26 whole entry S522P/G606S): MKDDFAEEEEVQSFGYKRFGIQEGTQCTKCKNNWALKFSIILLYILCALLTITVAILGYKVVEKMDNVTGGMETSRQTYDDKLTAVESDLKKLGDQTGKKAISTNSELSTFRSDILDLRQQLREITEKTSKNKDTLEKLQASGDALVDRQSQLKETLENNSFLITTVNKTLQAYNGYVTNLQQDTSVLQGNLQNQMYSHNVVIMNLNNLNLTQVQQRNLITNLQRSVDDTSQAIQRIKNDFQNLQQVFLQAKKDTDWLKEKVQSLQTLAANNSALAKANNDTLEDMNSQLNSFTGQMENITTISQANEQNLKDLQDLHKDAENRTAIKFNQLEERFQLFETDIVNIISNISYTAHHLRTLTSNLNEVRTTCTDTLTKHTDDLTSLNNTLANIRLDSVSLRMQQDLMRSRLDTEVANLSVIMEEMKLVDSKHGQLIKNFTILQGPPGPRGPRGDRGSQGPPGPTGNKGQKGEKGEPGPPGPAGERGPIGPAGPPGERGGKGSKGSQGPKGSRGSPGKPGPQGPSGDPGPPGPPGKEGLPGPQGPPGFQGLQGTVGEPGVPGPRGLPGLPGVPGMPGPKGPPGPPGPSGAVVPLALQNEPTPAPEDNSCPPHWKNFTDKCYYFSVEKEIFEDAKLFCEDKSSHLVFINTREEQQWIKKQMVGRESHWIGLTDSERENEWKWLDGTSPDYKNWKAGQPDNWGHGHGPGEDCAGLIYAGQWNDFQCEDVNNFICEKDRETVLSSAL
# T6 sequence (Q16651 30-343 limits assumed): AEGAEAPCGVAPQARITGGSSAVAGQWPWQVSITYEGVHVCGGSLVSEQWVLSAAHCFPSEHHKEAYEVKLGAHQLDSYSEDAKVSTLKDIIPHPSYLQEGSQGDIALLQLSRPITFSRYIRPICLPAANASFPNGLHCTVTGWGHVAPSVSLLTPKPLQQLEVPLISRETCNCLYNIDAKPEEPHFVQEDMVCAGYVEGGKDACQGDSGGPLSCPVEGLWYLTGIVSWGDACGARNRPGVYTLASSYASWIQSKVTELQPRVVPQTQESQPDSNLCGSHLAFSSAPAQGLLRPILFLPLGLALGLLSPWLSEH
# T9 sequence (Q86VH4 31-590 limits assumed): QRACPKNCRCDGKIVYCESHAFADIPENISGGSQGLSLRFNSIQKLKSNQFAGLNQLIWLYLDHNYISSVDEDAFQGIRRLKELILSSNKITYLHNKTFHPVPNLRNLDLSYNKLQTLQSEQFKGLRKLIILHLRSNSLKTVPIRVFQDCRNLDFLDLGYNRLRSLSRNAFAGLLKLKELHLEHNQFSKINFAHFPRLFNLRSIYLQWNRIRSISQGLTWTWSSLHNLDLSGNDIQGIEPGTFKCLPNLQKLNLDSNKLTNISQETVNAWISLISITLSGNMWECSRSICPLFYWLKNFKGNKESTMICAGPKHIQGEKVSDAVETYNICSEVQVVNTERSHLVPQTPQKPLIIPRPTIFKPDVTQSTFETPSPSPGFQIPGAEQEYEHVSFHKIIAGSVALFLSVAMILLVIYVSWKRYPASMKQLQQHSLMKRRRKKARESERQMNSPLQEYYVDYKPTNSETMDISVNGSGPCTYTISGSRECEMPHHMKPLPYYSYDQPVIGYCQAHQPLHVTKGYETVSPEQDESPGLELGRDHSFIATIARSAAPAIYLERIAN
# T7 sequence (Q5KU26 59-742 S522P/G606S limits assumed): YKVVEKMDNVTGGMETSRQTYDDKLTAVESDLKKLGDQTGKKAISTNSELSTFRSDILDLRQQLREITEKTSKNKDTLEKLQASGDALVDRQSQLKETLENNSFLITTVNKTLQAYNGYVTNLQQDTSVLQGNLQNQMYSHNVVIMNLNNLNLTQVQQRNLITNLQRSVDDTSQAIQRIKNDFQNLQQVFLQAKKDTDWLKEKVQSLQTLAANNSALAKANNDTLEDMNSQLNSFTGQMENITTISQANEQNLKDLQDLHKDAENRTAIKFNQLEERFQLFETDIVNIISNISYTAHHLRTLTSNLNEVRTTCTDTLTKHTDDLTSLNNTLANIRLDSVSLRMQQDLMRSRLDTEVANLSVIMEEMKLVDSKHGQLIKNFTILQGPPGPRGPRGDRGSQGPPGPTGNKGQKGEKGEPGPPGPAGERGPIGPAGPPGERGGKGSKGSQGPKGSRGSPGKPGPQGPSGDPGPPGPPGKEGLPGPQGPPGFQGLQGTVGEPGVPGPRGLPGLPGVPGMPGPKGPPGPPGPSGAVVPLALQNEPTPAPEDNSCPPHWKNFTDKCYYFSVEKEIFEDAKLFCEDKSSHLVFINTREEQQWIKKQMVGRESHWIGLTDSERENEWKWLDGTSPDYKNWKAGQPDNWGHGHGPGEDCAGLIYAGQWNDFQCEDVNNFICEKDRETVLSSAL
binder,measurement,setting,value
B1,% cells in lower right quadrant,[1],81%
same,% cells in lower right quadrant,[2],67.3%
same,% cells in lower right quadrant,[3],64.4%
same,Kd,[4],1100 nM
same,Kd,[5],49 nM
same,% cells in lower right quadrant,[6],68.8%
same,% cells in lower right quadrant,[7],70.8%
same,% cells in lower right quadrant,[8],42%
same,% cells in lower right quadrant,[9],46%
same,% cells in lower right quadrant,[10],36.8%
same,% cells in lower right quadrant,[11],27.8%
same,% cells in lower right quadrant,[12],23.4%
same,% cells in lower right quadrant,[13],0.014%
same,% cells in lower right quadrant,[14],11.7%
same,% cells in lower right quadrant,[15],2.31%
same,% cells in lower right quadrant,[16],18.7%
same,% cells in lower right quadrant,[17],31.5%
same,% cells in lower right quadrant,[18],6.39%
